Measurements taken from patent US20020160955A1 (published 2002).

Key:
[1] = target: T1, wild-type human IGF-I (purified, soluble) (human, UniProt P05019 49-118); assay: BIACORE; KD mut/KD wt
T1 construct: immobilized on the biosensor chip by amine coupling in BIACORE experiments; also called IGF-I WT
Protocol: (§1) Carboxymethylated dextran biosensor chips (CM5, BIAcore Inc.) were activated with EDC (N-ethyl-N′-(3-dimethylaminopropyl)-carbodiimide hydrochloride) and NHS (N-hydroxysuccinimide) according to the supplier's instructions. For immobilization, IGF mutants in 20 mM sodium acetate, pH 4.8, were injected onto the biosensor chip at a concentration of 50 μg/ml to yield approximately 450-600 RU's (resonance-response units) of covalently-coupled protein. Unreacted groups were blocked with an injection of 1 M ethanolamine. […] Association rates (kₐ) and dissociation rates (kd) were calculated separately using a 1:1 Langmuir™ association model in the BIACORE™ evaluation software v. 3.0. The equilibrium dissociation constant (KD) was calculated as kd/kₐ.

[2] = target: IGF-I G1S-A70V (purified, soluble) (human, UniProt P05019 50-117); assay: BIACORE; KD mut/KD wt
Protocol: as §1

[3] = target: T2, IGF-I T4A (purified, soluble) (human, UniProt P05019 49-118); assay: BIACORE; KD mut/KD wt
T2 construct: made from the wild-type template pBKIGF2B-f1-ori
T2 sequence (P05019 other isoform, or with tags, fused parts or gaps): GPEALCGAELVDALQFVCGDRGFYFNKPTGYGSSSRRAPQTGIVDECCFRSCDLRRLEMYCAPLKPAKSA
Protocol: as §1

[4] = target: T3, IGF-I V11A (purified, soluble) (human, UniProt P05019 49-118); assay: BIACORE; KD mut/KD wt
T3 construct: made from the wild-type template pBKIGF2B-f1-ori
T3 sequence (P05019 49-118 V59A): as the sequence (P05019 other isoform, or with tags, fused parts or gaps) above, with A4T, V11A counted along it
Protocol: as §1

[5] = target: T4, IGF-I F16A (purified, soluble) (human, UniProt P05019 49-118); assay: BIACORE; KD mut/KD wt
T4 construct: made from the wild-type template pBKIGF2B-f1-ori; also called IGF-F16A; FI6A
T4 sequence (P05019 49-118 F64A): as the sequence (P05019 other isoform, or with tags, fused parts or gaps) above, with A4T, F16A counted along it
Protocol: as §1

[6] = target: T5, IGF-I F25A (purified, soluble) (human, UniProt P05019 49-118); assay: BIACORE; KD mut/KD wt
T5 construct: made from the wild-type template pBKIGF2B-f1-ori
T5 sequence (P05019 49-118 F73A): as the sequence (P05019 other isoform, or with tags, fused parts or gaps) above, with A4T, F25A counted along it
Protocol: as §1

[7] = target: T6, IGF-I R36A (purified, soluble) (human, UniProt P05019 49-118); assay: BIACORE; KD mut/KD wt
T6 construct: made from the wild-type template pBKIGF2B-f1-ori
T6 sequence (P05019 49-118 R84A): as the sequence (P05019 other isoform, or with tags, fused parts or gaps) above, with A4T, R36A counted along it
Protocol: as §1

[8] = target: T7, IGF-I P39A (purified, soluble) (human, UniProt P05019 49-118); assay: BIACORE; KD mut/KD wt
T7 construct: made from the wild-type template pBKIGF2B-f1-ori
T7 sequence (P05019 49-118 P87A): as the sequence (P05019 other isoform, or with tags, fused parts or gaps) above, with A4T, P39A counted along it
Protocol: as §1

[9] = target: T8, F49A IGF-I (purified, soluble) (human, UniProt P05019 49-118); assay: BIACORE; KD mut/KD wt
T8 construct: made from the wild-type template pBKIGF2B-f1-ori; also called F49A IGF variant
T8 sequence (P05019 49-118 F97A): as the sequence (P05019 other isoform, or with tags, fused parts or gaps) above, with A4T, F49A counted along it
Protocol: as §1

[10] = target: T9, IGF-I G1S-A70V displayed on phage (human; bacteriophage M13); assay: competitive phage ELISA (FIG. 1)
T9 construct: monovalent M13 phage display; template of the alanine scan; also called G1S-A70V IGF-I; wild-type-like IGF-I variant; not shown: M13 gene III fragment (residues 249-406, display partner) and the junction to it
Protocol: Then phage concentrations were normalized to yield a maximal ELISA signal of 0.2-0.4 for each mutant (Lowman, in Cabilly, S. (ed.), supra). Threefold serial dilutions of soluble competitor were prepared on non-absorbent microtiter plates (Nunc, F, 96 wells) with binding buffer (0.5% TWEEN™ 20/PBS) containing phage at the previously-determined concentrations. […] After blocking, the plates containing immobilized target were washed with 0.05% TWEEN™/PBS buffer and subsequently incubated with 80 μl/well of the premixed phage-competitor solutions for 1 hour at room temperature. After washing, bound phage was detected with 80 μl/well of a solution containing a primary rabbit anti-phage polyclonal antibody and a secondary goat anti-rabbit monoclonal antibody-horseradish peroxidase conjugate in 0.5% TWEEN 20™/PBS. o-Phenylenediamine (Sigma) and tetramethylbenzidine (Kirkegaard and Perry) were used as chromogenic substrates, resulting in product detection at 492 and 450 nm, respectively. IC₅₀ values were determined by fitting the binding data to a generic saturation curve (Lowman, in Cabilly, S. (ed.), supra). […] Numbers in Table I represent mean +standard deviation of individually assessed IC₅₀ values.

T1 sequence (P05019 49-118): as the sequence (P05019 other isoform, or with tags, fused parts or gaps) above, with A4T counted along it

B1: human IGFBP-1 (other, UniProt P08833 26-259, looked up)
chain: APWQCAPCSAEKLALCPPVSASCSEVTRSAGCGCCPMCALPLGAACGVATARCARGLSCRALPGEQQPLHALTRGQGACVQESDASAPHAAEAGSPESPESTEITEEELLDNFHLMAPSEEDHSILWDAISTYDGSKALHVTNIKKWKEPCRIELYRVVESLAKAQETSGEEISKFYLPNCNKNGFYHSRQCETSMDGEAGLCWCVYPWNGKRIPGSPEIRGDPNCQIYFNVQN
notes: secreted recombinant protein purified from conditioned medium
relative KD [1]: 1
relative KD [2]: 1.1
relative KD [3]: 6.9
relative KD [4]: 5.1
relative KD [5]: 25
relative KD [6]: 25
relative KD [7]: 1.1
relative KD [8]: 1
relative KD [9]: 70
IC50 [10]: 8.5 nM
